Test results taken from article doi:10.1101/2021.10.15.464611.

Biological target: anti-PfTRAP monoclonal antibody AKBR-7 (mouse)
Test: BLI

Kd: 0.15 nM
B1: Plasmodium falciparum TRAP ectodomain (PfTRAP) (domain or fragment)
chain: RDVQNNIVDEIKYSEEVCNDQVDLYLLMDCSGSIRRHNWVNHAVPLAMKLIQQLNLNDNAIHLYVNVFSNNAKEIIRLHSDASKNKEKALIIIRSLLSTNLPYGRTNLTDALLQVRKHLNDRINRENANQLVVILTDGIPDSIQDSLKESRKLSDRGVKIAVFGIGQGINVAFNRFLVGCHPSDGKCNLYADSAWENVKNVIGPFMKAVCVEVEKTASCGVWDEWSPCSVTCGKGTRSRKREILHEGCTSEIQEQCEEERCPPKWEPLDVPDEPEDDQPRPRGDNSSVQKPEENIIDNNPQEPSPNPEEGKDENPNGFDLDENPENPPNPDIPEQKPNIPEDSEKEVPSDVPKNPEDDREENFDIPKKPENKHDNQNNLPNDKSDRNIPYSPLPPKVLDNERKQSDPQSQDNNGNRHVPNSEDRETRPHGRNNENRSYNRKYNDTPKHPEREEHEKPDNNKKKGESDNKYK
